From publication PMC4868323, “Interaction of Toll-Like Receptors with the Molecular Chaperone Gp96 Is Essential for Its Activation of Cytotoxic T Lymphocyte Response” (PLoS ONE, 2016)
No end group written: not given here.

Tests used:
Assay in all cases: ELISA; biotinylated HBc87-95 on 96-well streptavidin plates; serial dilutions of gp96 0.03–200 μg/mL in 20 mM HEPES pH 7.2, 20 mM NaCl, 2 mM MgCl2, 100 mM KCl, 1.5 h; detected with rat anti-grp94 antibody; 300 μM radicicol as inhibitor
Settings in all cases: both partners purified
[1] = target: T1, gp96 with Ala substitutions at the conserved residues in the first half of the CBD (gp96-mut), His-tagged (human, UniProt P14625 22-803, GWSGNMER (653-660) to AASAAAAA, read from the printed gp96-mut primer, FITC label on the portion used for flow cytometry (sites not given))
T1 construct: human gp96 (GRP94), mature protein, with Ala substitutions in the GWXGNMER motif of the CBD; positions follow the legend's 653-660 for the same eight residues deleted in gp96-ΔCBD; also called mutated gp96; mutant gp96; source: baculovirus (Bac-to-Bac, pFastBac1), purified (Ni-sepharose, Hitrap Q HP, Superdex 200)

[2] = target: T2, native mouse gp96 (mgp96) (mouse, UniProt P08113 22-802)
T2 construct: gp96 (GRP94, endoplasmin) purified from mouse liver; also called native gp96; source: purified from healthy mouse livers

[3] = target: T3, recombinant wild-type gp96 (gp96-wt), His-tagged (human, UniProt P14625 22-803, FITC label on the portion used for flow cytometry (sites not given))
T3 construct: human gp96 (GRP94), mature protein; cDNA in pET28a(+) subcloned with its His tag into pFastBac1; the 3' primer ends at ...EKDEL stop; The tag's end is read from the printed sense primer (MGSSHH..., as in pET28a); Unlabelled in the co-IP and ELISA, FITC-labelled in flow cytometry; also called FITC-gp96-wt; glucose-regulated protein 94; source: baculovirus (Bac-to-Bac, pFastBac1), purified …

Measured: binding result

T2 sequence (P08113 22-802): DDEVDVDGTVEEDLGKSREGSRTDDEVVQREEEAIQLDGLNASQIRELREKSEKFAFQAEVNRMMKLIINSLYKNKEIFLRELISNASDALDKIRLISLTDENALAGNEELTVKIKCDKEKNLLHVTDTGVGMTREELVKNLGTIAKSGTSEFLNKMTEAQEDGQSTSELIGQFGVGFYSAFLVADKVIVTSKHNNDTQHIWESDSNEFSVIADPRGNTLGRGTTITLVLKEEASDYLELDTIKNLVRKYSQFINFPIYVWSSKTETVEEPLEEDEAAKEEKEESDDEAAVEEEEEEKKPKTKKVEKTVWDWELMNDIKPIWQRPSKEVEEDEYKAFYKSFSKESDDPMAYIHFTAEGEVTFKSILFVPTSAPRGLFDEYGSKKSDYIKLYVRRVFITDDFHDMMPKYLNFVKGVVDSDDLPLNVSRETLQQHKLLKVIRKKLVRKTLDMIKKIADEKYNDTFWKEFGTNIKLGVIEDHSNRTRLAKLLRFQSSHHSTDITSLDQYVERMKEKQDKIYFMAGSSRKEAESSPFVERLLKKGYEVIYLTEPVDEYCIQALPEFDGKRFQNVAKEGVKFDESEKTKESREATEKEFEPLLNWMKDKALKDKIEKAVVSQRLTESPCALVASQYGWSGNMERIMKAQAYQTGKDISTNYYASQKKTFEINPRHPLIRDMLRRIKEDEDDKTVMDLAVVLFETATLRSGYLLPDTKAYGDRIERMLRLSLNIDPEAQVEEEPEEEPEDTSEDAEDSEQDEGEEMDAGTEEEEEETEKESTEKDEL
T1 sequence (P14625 other isoform, or with tags, fused parts or gaps with the stated changes): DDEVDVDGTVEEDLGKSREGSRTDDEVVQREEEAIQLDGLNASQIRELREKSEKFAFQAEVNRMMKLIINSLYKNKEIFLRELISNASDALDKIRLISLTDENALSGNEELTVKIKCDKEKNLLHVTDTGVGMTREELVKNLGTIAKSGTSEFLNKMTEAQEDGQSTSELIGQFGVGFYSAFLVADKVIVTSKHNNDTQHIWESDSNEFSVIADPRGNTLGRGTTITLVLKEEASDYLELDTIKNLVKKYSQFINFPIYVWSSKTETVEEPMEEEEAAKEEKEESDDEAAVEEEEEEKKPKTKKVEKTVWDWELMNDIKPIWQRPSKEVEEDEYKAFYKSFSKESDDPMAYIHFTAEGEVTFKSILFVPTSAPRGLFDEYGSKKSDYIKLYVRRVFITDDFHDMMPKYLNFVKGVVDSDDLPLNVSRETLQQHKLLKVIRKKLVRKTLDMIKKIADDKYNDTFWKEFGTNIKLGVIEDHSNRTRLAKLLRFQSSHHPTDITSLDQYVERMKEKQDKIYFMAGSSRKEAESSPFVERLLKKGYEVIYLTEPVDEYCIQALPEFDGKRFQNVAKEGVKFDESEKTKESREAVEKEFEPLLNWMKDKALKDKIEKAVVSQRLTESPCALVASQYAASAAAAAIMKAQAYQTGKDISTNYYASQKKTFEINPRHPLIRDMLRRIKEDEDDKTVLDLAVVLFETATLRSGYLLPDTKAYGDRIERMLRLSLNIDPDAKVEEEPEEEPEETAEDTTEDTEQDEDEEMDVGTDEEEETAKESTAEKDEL
T3 sequence (P14625 22-803): as the sequence (P14625 other isoform, or with tags, fused parts or gaps with the stated changes) above, with A632G, A633W, A635G, A636N, A637M, A638E, A639R counted along it

B1: biotinylated peptide HBc87-95 (peptide)
peptide: SYVNTNMGL
modifications: also: biotinylated, position not given here
notes: also called HBcAg_(87–95); source: synthetic peptide (GL Biochem Ltd.)
binds: all assays above
